Publication PMC1934993 (Nucleic Acids Research, 2007)

Molecular target: the molecule itself
Assay: crystal structure

B1: C-terminally truncated Saccharomyces cerevisiae tyrosyl-tRNA synthetase (SceTyrRS, residues 1-364) (enzyme, UniProt P36421 1-364, looked up)
chain: MSSAATVDPNEAFGLITKNLQEVLNPQIIKDVLEVQKRHLKLYWGTAPTGRPHCGYFVPMTKLADFLKAGCEVTVLLADLHAFLDNMKAPLEVVNYRAKYYELTIKAILRSINVPIEKLKFVVGSSYQLTPDYTMDIFRLSNIVSQNDAKRAGADVVKQVANPLLSGLIYPLMQALDEQFLDVDCQFGGVDQRKIFVLAEENLPSLGYKKRAHLMNPMVPGLAQGGKMSASDPNSKIDLLEEPKQVKKKINSAFCSPGNVEENGLLSFVQYVIAPIQELKFGTNHFEFFIDRPEKFGGPITYKSFEEMKLAFKEEKLSPPDLKIGVADAINELLEPIRQEFANNKEFQEASEKGYPVATPQKSK
With B1 the “stoichiometry N” value was 2.
